Experimental data: article PMC1847435, “Structural investigations of the ferredoxin and terminal oxygenase components of the biphenyl 2,3-dioxygenase from Sphingobium yanoikuyae B1” (BMC Structural Biology, 2007)

B1: Biphenyl 2,3-dioxygenase from Sphingobium yanoikuyae strain B1, terminal oxygenase α subunit (enzyme)
chain: MSSDATLVDTVNASQSRQVFWDEDVYALEIERIFSRAWLMLGHESLVPKPGDFITTYMAEDKVILSHQSDGTFRAFINSCSHRGNQICHADSGNAKAFVCNYHGWVFGQDGSLVDVPLESRCYHNSLDKQKLAAKSVRVETYKGFIFGCHDPEAPSLEDYLGEFRYYLDTIWEGAGGGMELLGPPMKSLLQCNWKVPAENFIGDGYHVGWTHAAALSQIGGELAGLAGNRADIPFDDLGLQFTTRHGHGFGVIDNAAAGLHIKREGWTKFLEDTRGEVRRKFGPERERLYLGHWNCSIFPNCSFLYGTNTFKIWHPRGPHEIEVWTYTIVPRDADPATKSMIQREAIRTFGTAGTLESDDGENMSSATYINRGVITRNGRMNSTMGVGYEGPHPVYPGIVGISFIGETSYRGFYRFWKEMIDAPDWASVKANDDTWDSVFPNRNFWNEKLNAAE
notes: α subunit of biphenyl 2,3-dioxygenase (BPDO-OB1), Sphingobium yanoikuyae B1, encoded by bphA1f; the α subunit consists of 454 residues; residues 6-454 modelled in the structure; Co-expressed with the β subunit (bphA1fA2f in one vector); also called BPDO-OB1 α subunit; source: cloned from B1 into pET101D, expressed as described in Yu et al. [45], purified

Experiments:
[1] = target: B1; assay: crystal structure; purified BPDO-OB1 at 20 mg/ml in 20 mM potassium phosphate pH 6.8; space group P3(1)21, complete α3β3 in the asymmetric unit; native (1.70 Å) and biphenyl-soaked crystals; settings: both partners purified
[2] = target: the molecule itself; assay: as above

binding result [1] | Binder | stoichiometry N [2]
binds | Biphenyl 2,3-dioxygenase from Sphingobium yanoikuyae strain B1, terminal oxygenase β subunit (enzyme, β subunit of biphenyl 2,3-dioxygenase (BPDO-OB1), Sphingobium yanoikuyae B1, encoded by bphA2f; residues 5-174 modelled in the structure; Co-expressed with the α subunit (bphA1fA2f in one vector); also called BPDO-OB1 β subunit; source: cloned from B1 into pET101D, expressed as described in Yu et al. [45], purified) MSSEQIPVTPDVHYDIEAHYRAEVRMFQTGQYREWLQGMVAEDIHYWMPIYEQRLTRDRRPDPTPDDAAIYNDDFGELKQRVERLYSGQVWMEDPPSKIRYFVSNVEAFEAGNGELDVLSNILVYRNRRQTEVTVHTLGREDKLRRDGNGFKVFRRKLILDARVTQDKNLYFFC | 3
 | B1 | 3
